These results are taken from patent US20220235143A1.

Test [1] addresses MUC16 c114 expressed on transfected SKOV3 cells (SKOV3^c114) (human). Briefly: Lindmo cell-binding assay, 89Zr-DFO antibody on SKOV3^c114 cells.
For test [2] the target is unchanged. In words: FACS surface staining of SKOV3-c114 transfectant cells, goat anti-mouse IgG2b-PE detection; same cells: secondary alone 138, cells only 36.8; 4H11 on vector control SKOV3-phrGFP 162.
Test [3] shares this target. Briefly: Lindmo cell-binding assay on SKOV3^c114 cells.
For test [4] the target is unchanged. In words: FACS surface staining of A2780-c114 transfectant cells, goat anti-mouse IgG2b-PE detection; same cells: secondary alone 0.10, cells only 0.01; 4H11 on vector control A2780-phrGFP 0.88.
For test [5] the target is unchanged. In words: saturation binding assay, 89Zr-labeled antibody on SKOV3^c114 cells, cell bound activity (counts); right panel.
Test [6] shares this target. Briefly: FACS surface staining of SKOV3-c114 transfectant cells, goat anti-mouse IgG2b-PE detection; same cells: secondary alone 6.80, cells only 0.14; 4H11 on vector control SKOV3-phrGFP 2.80.
In test [7] the target is MUC16 c344 expressed on transfected cells (SKOV3-phrGFP-MUC16c344, A2780-phrGFP-MUC16c344) (human). In words: FACS surface staining of A2780-c344 transfectant cells, goat anti-mouse IgG2b-PE detection; same cells: secondary alone 69.8, cells only 33.7; 4H11 on vector control A2780-phrGFP: bar at the level of secondary alone, label overlapped.
Sequence of MUC16 c344 expressed on transfected cells (SKOV3-phrGFP-MUC16c344, A2780-phrGFP-MUC16c344) (human) (chain, as listed by the source limits assumed): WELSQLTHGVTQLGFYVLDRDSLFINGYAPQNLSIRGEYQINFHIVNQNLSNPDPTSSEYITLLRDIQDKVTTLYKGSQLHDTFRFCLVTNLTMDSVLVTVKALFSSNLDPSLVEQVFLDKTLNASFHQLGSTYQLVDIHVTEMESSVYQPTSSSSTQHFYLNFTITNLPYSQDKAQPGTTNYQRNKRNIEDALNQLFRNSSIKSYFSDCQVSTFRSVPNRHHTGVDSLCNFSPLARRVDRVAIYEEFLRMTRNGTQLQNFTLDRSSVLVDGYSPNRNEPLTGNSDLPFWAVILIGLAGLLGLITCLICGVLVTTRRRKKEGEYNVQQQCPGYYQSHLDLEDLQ
Test [8] shares this target. Briefly: FACS surface staining of SKOV3-c344 transfectant cells, goat anti-mouse IgG2b-PE detection; same cells: secondary alone 0.53, cells only 0.04; 4H11 on vector control SKOV3-phrGFP 2.80.
Test [9] concerns the target MUC16 c114 expressed on transfected SKOV3 cells (SKOV3^c114) (human). In words: FACS surface staining of A2780-c114 transfectant cells, goat anti-mouse IgG2b-PE detection; same cells: secondary alone 42.3, cells only 24.6; 4H11 on vector control A2780-phrGFP: bar at the level of secondary alone, label overlapped.
In test [10] the target is MUC16 as naturally expressed on ovarian cancer cell lines (OVCAR3; also OVCA-433, CAOV3) (human). Briefly: FACS surface staining of OVCAR3 cells, goat anti-mouse IgG2b-PE detection; same cells: secondary alone 1.95, cells only 0.34.
Test [11] concerns the target MUC16 c344 expressed on transfected cells (SKOV3-phrGFP-MUC16c344, A2780-phrGFP-MUC16c344) (human). In words: FACS surface staining of SKOV3-c344 transfectant cells, goat anti-mouse IgG2b-PE detection; same cells: secondary alone 106, cells only 49.2; 4H11 on vector control SKOV3-phrGFP 162.
Test [12] deals with MUC16 as naturally expressed on ovarian cancer cell lines (OVCAR3; also OVCA-433, CAOV3) (human). In words: FACS surface staining of OVCAR3 cells, goat anti-mouse IgG2b-PE detection; same cells: secondary alone 65.8, cells only 24.6.
For test [13], the target named is MUC16 c114 expressed on transfected SKOV3 cells (SKOV3^c114) (human). In words: saturation binding of 89Zr-DFO antibody on SKOV3^c114 cells.
Sequence of MUC16 c114 expressed on transfected SKOV3 cells (SKOV3^c114) (human) (chain, as listed by the source limits assumed): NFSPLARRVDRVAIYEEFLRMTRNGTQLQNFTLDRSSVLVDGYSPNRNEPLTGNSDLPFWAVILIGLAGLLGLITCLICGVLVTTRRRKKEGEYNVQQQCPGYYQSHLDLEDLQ
Test [14] concerns the target MUC16 c344 expressed on transfected cells (SKOV3-phrGFP-MUC16c344, A2780-phrGFP-MUC16c344) (human). In words: FACS surface staining of A2780-c344 transfectant cells, goat anti-mouse IgG2b-PE detection; same cells: secondary alone 0.68, cells only 0.07; 4H11 on vector control A2780-phrGFP 0.88.

In turn, 4H11 murine monoclonal antibody had an Immunoreactive Fraction (%) in test [1] of 88.3%. In addition, the Geometric Mean PE Fluorescence (Relative Number) in test [2] is 2080; in [7], 777; in test [9], 544; in test [11] it was 1580; in test [12] it was 3050. Besides, the immunoreactive fraction in [3] was more than 80%. Also, the % PE Positive in [4] was determined as 71.3%; in [6], 95.9%; in [8], 41.2%; in [10] it was 98.5%; in test [14] it was 93.8%. Besides, the concentration giving a half-maximal response (EC50 (read off the curve)) in test [5] came out at 6 nM. In addition, the equilibrium dissociation constant (Kd) was 6.37 nM in [5] and 6.4 nM in test [13].

By EC50 (read off the curve) is commonly meant the concentration needed to bring the measured effect to its halfway point. As usually defined, the Kd is the constant that tells how readily two partners part at equilibrium. Low values mean higher affinity, high ones lower affinity.
